{
  "source": "paper PMC6135609",
  "about": "“Poly(ADP-ribose) polymerase 1 searches DNA via a ‘monkey bar’ mechanism”",
  "conditions_in_all_cases": "protein: recombinant; (Ni-NTA; pET28a); blunt",
  "key": {"PARP1 WT": {"biological_target": "PARP1 WT (human, UniProt P09874 1-1014)", "sequence (P09874 whole entry)": "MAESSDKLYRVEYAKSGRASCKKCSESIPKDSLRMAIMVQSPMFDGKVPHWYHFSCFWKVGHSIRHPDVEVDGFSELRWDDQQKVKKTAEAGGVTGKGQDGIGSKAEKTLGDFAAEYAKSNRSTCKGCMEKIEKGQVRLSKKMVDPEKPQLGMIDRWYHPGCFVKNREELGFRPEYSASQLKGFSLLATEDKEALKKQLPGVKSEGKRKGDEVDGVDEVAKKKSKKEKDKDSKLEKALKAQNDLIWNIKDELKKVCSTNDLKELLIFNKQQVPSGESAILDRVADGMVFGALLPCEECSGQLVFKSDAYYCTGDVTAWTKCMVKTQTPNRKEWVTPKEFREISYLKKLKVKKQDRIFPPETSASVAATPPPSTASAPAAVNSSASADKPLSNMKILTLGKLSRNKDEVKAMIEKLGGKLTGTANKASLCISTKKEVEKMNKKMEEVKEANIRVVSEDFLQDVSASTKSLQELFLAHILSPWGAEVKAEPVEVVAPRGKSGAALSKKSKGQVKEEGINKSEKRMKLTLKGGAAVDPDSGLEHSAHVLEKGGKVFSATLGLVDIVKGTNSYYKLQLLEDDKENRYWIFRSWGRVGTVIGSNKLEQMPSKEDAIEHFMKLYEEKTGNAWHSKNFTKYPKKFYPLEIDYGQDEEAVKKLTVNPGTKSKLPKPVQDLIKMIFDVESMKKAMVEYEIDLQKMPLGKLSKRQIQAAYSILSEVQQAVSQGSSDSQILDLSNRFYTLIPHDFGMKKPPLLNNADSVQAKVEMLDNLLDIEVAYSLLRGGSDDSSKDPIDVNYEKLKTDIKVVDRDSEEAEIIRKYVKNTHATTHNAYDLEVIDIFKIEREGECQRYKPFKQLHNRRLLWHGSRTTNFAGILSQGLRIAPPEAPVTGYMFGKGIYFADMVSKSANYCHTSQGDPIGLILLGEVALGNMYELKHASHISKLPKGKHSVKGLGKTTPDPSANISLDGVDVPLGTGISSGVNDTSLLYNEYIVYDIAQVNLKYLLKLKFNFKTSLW", "assay": "stopped-flow fluorescence anisotropy; kinetic Kd; k1 3.1 nM-1 s-1, k-1 <10 s-1; 50 mM Tris-HCl pH 7.5, 50 mM NaCl, 1 mM MgCl2, 0.1 mM EDTA, 0.01% IGEPAL, 20 C"}, "PARP1 dZn3": {"biological_target": "PARP1 dZn3 (human, UniProt P09874 1-215+=ALAGSGSGSGSGSGLALLLAGSGSGSGSGAAL+367-1014, internal_change)", "sequence (P09874 other isoform, or with tags, fused parts or gaps)": "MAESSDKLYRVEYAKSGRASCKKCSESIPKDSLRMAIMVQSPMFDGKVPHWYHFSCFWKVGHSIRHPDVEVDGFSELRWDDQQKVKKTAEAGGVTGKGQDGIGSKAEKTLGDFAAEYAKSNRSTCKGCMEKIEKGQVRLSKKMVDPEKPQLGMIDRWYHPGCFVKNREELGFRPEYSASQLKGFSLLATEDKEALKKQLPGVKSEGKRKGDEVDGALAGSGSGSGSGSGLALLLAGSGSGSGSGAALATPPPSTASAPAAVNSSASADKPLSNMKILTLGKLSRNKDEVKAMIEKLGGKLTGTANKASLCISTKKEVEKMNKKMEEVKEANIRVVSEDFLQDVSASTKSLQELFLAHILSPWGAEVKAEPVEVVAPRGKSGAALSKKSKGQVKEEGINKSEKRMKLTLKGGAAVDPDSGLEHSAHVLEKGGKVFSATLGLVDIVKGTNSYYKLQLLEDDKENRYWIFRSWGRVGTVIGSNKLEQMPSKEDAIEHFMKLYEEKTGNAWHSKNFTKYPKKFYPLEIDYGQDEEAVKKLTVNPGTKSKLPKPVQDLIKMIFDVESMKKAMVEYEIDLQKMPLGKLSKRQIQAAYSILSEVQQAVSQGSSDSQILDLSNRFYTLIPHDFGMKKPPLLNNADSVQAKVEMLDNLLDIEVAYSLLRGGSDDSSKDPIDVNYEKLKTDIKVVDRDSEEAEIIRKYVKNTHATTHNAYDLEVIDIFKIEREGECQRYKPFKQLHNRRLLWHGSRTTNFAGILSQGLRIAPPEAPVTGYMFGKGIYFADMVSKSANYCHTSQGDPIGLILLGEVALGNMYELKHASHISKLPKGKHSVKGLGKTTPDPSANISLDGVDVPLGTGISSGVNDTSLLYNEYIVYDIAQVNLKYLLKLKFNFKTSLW", "assay": "stopped-flow fluorescence anisotropy; k1 similar to WT; Scheme 3 dissociation; 50 mM Tris-HCl pH 7.5, 50 mM NaCl, 1 mM MgCl2, 0.1 mM EDTA, 0.01% IGEPAL, 20 C"}, "PARP1 dZn1": {"biological_target": "PARP1 dZn1 (human, UniProt P09874 97-1014, del2-96)", "sequence (P09874 97-1014, stated change not applied)": "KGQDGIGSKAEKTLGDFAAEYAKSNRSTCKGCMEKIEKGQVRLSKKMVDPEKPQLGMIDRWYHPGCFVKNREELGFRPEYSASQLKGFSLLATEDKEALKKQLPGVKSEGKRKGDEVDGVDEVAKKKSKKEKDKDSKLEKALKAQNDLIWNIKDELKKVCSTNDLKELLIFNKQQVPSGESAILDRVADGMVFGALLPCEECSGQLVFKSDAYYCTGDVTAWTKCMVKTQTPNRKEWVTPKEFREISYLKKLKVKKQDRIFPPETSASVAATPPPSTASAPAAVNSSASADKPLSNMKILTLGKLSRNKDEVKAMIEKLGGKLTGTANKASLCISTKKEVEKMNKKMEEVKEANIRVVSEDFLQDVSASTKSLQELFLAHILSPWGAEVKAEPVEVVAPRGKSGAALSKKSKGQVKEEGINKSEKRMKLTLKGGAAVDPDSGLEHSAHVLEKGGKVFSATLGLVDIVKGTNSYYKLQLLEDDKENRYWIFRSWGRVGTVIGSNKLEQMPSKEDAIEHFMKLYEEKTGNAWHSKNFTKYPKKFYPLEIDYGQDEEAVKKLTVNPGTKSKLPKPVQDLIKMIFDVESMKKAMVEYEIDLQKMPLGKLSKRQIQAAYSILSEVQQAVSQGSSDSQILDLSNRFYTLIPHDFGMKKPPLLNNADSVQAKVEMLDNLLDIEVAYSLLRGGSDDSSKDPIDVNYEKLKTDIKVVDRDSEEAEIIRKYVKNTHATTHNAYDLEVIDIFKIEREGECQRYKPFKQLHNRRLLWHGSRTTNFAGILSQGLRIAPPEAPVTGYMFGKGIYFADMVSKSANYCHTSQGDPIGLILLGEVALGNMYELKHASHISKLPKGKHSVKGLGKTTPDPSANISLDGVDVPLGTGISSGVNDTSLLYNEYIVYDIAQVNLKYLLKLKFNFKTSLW", "assay": "stopped-flow fluorescence anisotropy; k1 similar to WT; Scheme 3 dissociation; 50 mM Tris-HCl pH 7.5, 50 mM NaCl, 1 mM MgCl2, 0.1 mM EDTA, 0.01% IGEPAL, 20 C"}, "PARP1 dZn2": {"biological_target": "PARP1 dZn2 (human, UniProt P09874 1-96+=ALAGSGSGSGSGSGLALLLAGSGSGSGSGAAL+207-1014, internal_change)", "sequence (P09874 other isoform, or with tags, fused parts or gaps)": "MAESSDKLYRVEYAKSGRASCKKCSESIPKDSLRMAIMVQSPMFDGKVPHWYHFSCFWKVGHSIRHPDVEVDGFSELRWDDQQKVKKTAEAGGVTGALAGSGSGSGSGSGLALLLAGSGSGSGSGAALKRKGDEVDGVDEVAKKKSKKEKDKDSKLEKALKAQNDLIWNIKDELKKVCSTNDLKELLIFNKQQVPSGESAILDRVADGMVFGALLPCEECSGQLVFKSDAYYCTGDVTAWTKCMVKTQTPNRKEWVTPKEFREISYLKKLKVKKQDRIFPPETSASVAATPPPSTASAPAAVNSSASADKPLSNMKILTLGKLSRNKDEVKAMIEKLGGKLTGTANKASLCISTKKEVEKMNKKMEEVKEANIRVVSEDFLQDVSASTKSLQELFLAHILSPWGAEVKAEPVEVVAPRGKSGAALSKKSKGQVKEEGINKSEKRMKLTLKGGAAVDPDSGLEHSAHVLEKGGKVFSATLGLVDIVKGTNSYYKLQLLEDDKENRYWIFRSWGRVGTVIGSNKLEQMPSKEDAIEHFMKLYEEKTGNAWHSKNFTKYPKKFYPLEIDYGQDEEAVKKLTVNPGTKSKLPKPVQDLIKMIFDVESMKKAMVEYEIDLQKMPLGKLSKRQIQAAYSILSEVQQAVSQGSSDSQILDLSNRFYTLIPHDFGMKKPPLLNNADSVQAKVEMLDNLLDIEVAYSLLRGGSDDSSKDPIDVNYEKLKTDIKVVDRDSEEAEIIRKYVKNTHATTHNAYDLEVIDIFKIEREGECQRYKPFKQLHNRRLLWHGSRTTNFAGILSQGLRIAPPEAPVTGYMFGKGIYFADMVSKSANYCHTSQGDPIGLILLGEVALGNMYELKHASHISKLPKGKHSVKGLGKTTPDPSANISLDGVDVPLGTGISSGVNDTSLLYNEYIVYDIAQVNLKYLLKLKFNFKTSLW", "assay": "stopped-flow fluorescence anisotropy; k1 similar to WT; Scheme 3 dissociation; 50 mM Tris-HCl pH 7.5, 50 mM NaCl, 1 mM MgCl2, 0.1 mM EDTA, 0.01% IGEPAL, 20 C"}, "PARP1 dWGR": {"biological_target": "PARP1 dWGR (human, UniProt P09874 1-517+=ALAGSGSGSGSGSGLALLLAGSGSGSGSGAAL+655-1014, internal_change)", "sequence (P09874 other isoform, or with tags, fused parts or gaps)": "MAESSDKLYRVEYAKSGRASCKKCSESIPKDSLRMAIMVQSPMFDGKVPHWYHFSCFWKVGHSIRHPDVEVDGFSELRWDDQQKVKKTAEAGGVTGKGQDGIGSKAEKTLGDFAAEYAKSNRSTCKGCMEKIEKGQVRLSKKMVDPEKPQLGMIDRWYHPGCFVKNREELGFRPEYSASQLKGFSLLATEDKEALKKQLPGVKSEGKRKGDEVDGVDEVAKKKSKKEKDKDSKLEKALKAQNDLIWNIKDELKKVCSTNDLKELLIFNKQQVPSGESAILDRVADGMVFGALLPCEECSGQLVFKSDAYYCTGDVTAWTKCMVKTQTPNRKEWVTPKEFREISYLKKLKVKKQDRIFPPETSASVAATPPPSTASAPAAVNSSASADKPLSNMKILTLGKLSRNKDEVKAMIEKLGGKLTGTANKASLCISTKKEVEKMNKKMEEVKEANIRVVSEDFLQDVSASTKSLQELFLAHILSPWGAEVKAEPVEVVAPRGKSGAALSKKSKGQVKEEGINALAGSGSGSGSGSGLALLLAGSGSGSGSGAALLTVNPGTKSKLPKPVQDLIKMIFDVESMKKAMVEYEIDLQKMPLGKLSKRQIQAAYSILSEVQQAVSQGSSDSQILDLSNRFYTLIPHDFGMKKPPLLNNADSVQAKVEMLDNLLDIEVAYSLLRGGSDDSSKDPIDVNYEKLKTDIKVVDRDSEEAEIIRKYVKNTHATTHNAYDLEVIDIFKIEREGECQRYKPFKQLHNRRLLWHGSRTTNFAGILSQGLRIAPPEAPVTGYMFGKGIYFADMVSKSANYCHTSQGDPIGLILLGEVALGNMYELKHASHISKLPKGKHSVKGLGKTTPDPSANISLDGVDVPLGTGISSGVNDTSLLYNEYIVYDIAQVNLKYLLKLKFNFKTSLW", "assay": "stopped-flow fluorescence anisotropy; k1 similar to WT; Scheme 2 dissociation, no ternary complex; 50 mM Tris-HCl pH 7.5, 50 mM NaCl, 1 mM MgCl2, 0.1 mM EDTA, 0.01% IGEPAL, 20 C"}},
  "data": [
    {"binder": "p18mer* (labeled DSB model) (dsDNA, 5'-phosphate) DNA 1: GGGTTGCGGCCGCTTGGG DNA 2: CCCAAGCGGCCGCAACCC", "values": [
      {"measurement": "Kd", "setting": "PARP1 WT", "value": "< 3", "unit": "nM"},
      {"measurement": "binding result", "setting": "PARP1 dZn3", "value": "binds"},
      {"measurement": "binding result", "setting": "PARP1 dZn1", "value": "binds"},
      {"measurement": "binding result", "setting": "PARP1 dZn2", "value": "binds"},
      {"measurement": "binding result", "setting": "PARP1 dWGR", "value": "binds"}
    ]}
  ]
}
